Laboratory results reported in patent US20130309222A1 (Janssen / Centocor, published 2013).
Ends that are not written are not given here.

Key:
infliximab [1] = test: SPR (Biacore S51), biotinylated peptide on streptavidin chip, infliximab as analyte, 1:1 Langmuir fit, average of N=2
infliximab [2] = test: ELISA, infliximab captured on goat anti-human Fc, biotinylated peptide titrated, streptavidin-HRP, luminescence

Sequence of infliximab (VH, as listed by the source, chain 1 of 2): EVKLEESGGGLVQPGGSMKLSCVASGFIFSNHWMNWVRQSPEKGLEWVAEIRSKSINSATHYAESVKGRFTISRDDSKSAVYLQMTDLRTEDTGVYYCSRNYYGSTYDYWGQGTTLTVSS
Sequence of infliximab (VL, as listed by the source, chain 2 of 2): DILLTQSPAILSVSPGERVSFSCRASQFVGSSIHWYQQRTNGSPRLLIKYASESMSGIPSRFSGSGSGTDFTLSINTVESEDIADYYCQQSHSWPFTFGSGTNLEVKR

Kd (infliximab [1]) [nM] | EC50 (read off the curve) (infliximab [2]) [nM] | Binder
17.1 | ~3000 | AGYVCDPAGPNCWA (cysteine pairing not given here; also: biotinylated, position not given here, Fmoc solid phase synthesis; also called 1011A) [biotinylated, chemically synthesized peptide having SEQ ID NO: 2]
9.17 | ~10000 | AGVWCGDETLPPSICFR (cysteine pairing not given here; also: biotinylated, position not given here, Fmoc solid phase synthesis; also called 1067B) [biotinylated, chemically synthesized peptide having SEQ ID NO: 10]
